Results from IntAct's records for PubMed 31515488.

B1: Kinesin-like protein KIF20A (Homo sapiens), O95235 (parent)
chain: MSQGILSPPAGLLSDDDVVVSPMFESTAADLGSVVRKNLLSDCSVVSTSLEDKQQVPSEDSMEKVKVYLRVRPLLPSELERQEDQGCVRIENVETLVLQAPKDSFALKSNERGIGQATHRFTFSQIFGPEVGQASFFNLTVKEMVKDVLKGQNWLIYTYGVTNSGKTHTIQGTIKDGGILPRSLALIFNSLQGQLHPTPDLKPLLSNEVIWLDSKQIRQEEMKKLSLLNGGLQEEELSTSLKRSVYIESRIGTSTSFDSGIAGLSSISQCTSSSQLDETSHRWAQPDTAPLPVPANIRFSIWISFFEIYNELLYDLLEPPSQQRKRQTLRLCEDQNGNPYVKDLNWIHVQDAEEAWKLLKVGRKNQSFASTHLNQNSSRSHSIFSIRILHLQGEGDIVPKISELSLCDLAGSERCKDQKSGERLKEAGNINTSLHTLGRCIAALRQNQQNRSKQNLVPFRDSKLTRVFQGFFTGRGRSCMIVNVNPCASTYDETLHVAKFSAIASQLVHAPPMQLGFPSLHSFIKEHSLQVSPSLEKGAKADTGLDDDIENEADISMYGKEELLQVVEAMKTLLLKERQEKLQLEMHLRDEICNEMVEQMQQREQWCSEHLDTQKELLEEMYEEKLNILKESLTSFYQEEIQERDEKIEELEALLQEARQQSVAHQQSGSELALRRSQRLAASASTQQLQEVKAKLQQCKAELNSTTEELHKYQKMLEPPPSAKPFTIDVDKKLEEGQKNIRLLRTELQKLGESLQSAERACCHSTGAGKLRQALTTCDDILIKQDQTLAELQNNMVLVKLDLRKKAACIAEQYHTVLKLQGQVSAKKRLGTNQENQQPNQQPPGKKPFLRNLLPRTPTCQSSTDCSPYARILRSRRSPLLKSGPFGKKY
partner: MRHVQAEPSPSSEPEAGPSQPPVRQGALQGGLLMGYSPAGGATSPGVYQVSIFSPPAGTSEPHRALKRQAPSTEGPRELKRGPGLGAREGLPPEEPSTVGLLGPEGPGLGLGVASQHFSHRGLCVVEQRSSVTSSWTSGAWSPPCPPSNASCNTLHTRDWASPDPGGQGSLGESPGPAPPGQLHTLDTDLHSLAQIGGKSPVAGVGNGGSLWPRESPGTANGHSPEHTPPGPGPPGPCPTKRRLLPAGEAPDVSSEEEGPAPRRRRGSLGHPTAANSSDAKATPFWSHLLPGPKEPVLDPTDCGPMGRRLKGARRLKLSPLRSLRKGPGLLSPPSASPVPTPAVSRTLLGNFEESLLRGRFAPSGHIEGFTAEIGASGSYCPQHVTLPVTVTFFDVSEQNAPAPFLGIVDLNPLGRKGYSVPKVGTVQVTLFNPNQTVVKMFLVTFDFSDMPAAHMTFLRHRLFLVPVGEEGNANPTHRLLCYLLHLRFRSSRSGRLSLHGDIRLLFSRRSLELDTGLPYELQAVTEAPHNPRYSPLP
B2: Ubiquitin thioesterase OTUB2 (Homo sapiens), Q96DC9 (parent)
chain: MSETSFNLISEKCDILSILRDHPENRIYRRKIEELSKRFTAIRKTKGDGNCFYRALGYSYLESLLGKSREIFKFKERVLQTPNDLLAAGFEEHKFRNFFNAFYSVVELVEKDGSVSSLLKVFNDQSASDHIVQFLRLLTSAFIRNRADFFRHFIDEEMDIKDFCTHEVEPMATECDHIQITALSQALSIALQVEYVDEMDTALNHHVFPEAATPSVYLLYKTSHYNILYAADKH
partner: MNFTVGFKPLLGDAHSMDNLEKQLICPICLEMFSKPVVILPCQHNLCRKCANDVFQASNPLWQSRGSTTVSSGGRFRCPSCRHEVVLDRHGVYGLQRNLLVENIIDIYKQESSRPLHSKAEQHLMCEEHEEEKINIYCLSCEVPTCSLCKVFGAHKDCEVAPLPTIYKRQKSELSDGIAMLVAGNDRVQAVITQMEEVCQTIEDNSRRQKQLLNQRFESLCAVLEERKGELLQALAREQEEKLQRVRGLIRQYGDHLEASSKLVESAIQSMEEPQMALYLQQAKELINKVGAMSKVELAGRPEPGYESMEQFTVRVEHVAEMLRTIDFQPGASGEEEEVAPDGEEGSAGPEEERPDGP
B3: Keratin-associated protein 26-1 (Homo sapiens), Q6PEX3 (parent)
chain: MSCPNYCSGNSNSGSLRTSRHIPLTSIDLCPTSVSCGDVLYLPTSSQDHTWVTDNCQETCGEPTSCQPVHCETGNLETSCGSSTAYYVPRPCQGSSFLPASFFSSSCLPVSCRPQRYVSSGCRPLRPLLNSYQPIGDCVPNAYRPQFCLSKSCQPQNLLTSGCQPSSCLAYRPQSLHVVSSSLRPLGPLFSGCQPLTHVFSTCRPSCSGL
partner: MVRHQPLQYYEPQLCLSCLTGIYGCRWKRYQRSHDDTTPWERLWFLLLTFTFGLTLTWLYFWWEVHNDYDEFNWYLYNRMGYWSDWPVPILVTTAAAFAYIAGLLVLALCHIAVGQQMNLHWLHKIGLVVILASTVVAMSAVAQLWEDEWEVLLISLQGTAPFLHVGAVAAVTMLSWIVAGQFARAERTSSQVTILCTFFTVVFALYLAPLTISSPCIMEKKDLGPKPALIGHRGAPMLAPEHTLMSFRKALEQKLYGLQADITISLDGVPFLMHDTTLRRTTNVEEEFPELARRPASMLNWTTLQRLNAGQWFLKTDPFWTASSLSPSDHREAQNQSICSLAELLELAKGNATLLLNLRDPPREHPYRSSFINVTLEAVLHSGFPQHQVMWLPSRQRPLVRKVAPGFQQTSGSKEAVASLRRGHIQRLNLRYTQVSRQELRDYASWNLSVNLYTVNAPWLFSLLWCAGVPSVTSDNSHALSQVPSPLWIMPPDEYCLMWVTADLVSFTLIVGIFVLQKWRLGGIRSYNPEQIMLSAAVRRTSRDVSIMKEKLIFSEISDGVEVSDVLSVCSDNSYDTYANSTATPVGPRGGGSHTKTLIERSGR
B4: DCC-interacting protein 13-beta (Homo sapiens), Q8NEU8 (parent)
chain: MPAVDKLLLEEALQDSPQTRSLLSVFEEDAGTLTDYTNQLLQAMQRVYGAQNEMCLATQQLSKQLLAYEKQNFALGKGDEEVISTLHYFSKVVDELNLLHTELAKQLADTMVLPIIQFREKDLTEVSTLKDLFGLASNEHDLSMAKYSRLPKKKENEKVKTEVGKEVAAARRKQHLSSLQYYCALNALQYRKQMAMMEPMIGFAHGQINFFKKGAEMFSKRMDSFLSSVADMVQSIQVELEAEAEKMRVSQQELLSVDESVYTPDSDVAAPQINRNLIQKAGYLNLRNKTGLVTTTWERLYFFTQGGNLMCQPRGAVAGGLIQDLDNCSVMAVDCEDRRYCFQITTPNGKSGIILQAESRKENEEWICAINNISRQIYLTDNPEAVAIKLNQTALQAVTPITSFGKKQESSCPSQNLKNSEMENENDKIVPKATASLPEAEELIAPGTPIQFDIVLPATEFLDQNRGSRRTNPFGETEDESFPEAEDSLLQQMFIVRFLGSMAVKTDSTTEVIYEAMRQVLAARAIHNIFRMTESHLMVTSQSLRLIDPQTQVSRANFELTSVTQFAAHQENKRLVGFVIRVPESTGEESLSTYIFESNSEGEKICYAINLGKEIIEVQKDPEALAQLMLSIPLTNDGKYVLLNDQPDDDDGNPNEHRGAESEA
B5: Angiomotin (Homo sapiens), Q4VCS5 (parent)
chain: MRNSEEQPSGGTTVLQRLLQEQLRYGNPSENRSLLAIHQQATGNGPPFPSGSGNPGPQSDVLSPQDHHQQLVAHAARQEPQGQEIQSENLIMEKQLSPRMQNNEELPTYEEAKVQSQYFRGQQHASVGAAFYVTGVTNQKMRTEGRPSVQRLNPGKMHQDEGLRDLKQGHVRSLSERLMQMSLATSGVKAHPPVTSAPLSPPQPNDLYKNPTSSSEFYKAQGPLPNQHSLKGMEHRGPPPEYPFKGMPPQSVVCKPQEPGHFYSEHRLNQPGRTEGQLMRYQHPPEYGAARPAQDISLPLSARNSQPHSPTSSLTSGGSLPLLQSPPSTRLSPARHPLVPNQGDHSAHLPRPQQHFLPNQAHQGDHYRLSQPGLSQQQQQQQQQHHHHHHHQQQQQQQPQQQPGEAYSAMPRAQPSSASYQPVPADPFAIVSRAQQMVEILSDENRNLRQELEGCYEKVARLQKVETEIQRVSEAYENLVKSSSKREALEKAMRNKLEGEIRRMHDFNRDLRERLETANKQLAEKEYEGSEDTRKTISQLFAKNKESQREKEKLEAELATARSTNEDQRRHIEIRDQALSNAQAKVVKLEEELKKKQVYVDKVEKMQQALVQLQAACEKREQLEHRLRTRLERELESLRIQQRQGNCQPTNVSEYNAAALMELLREKEERILALEADMTKWEQKYLEENVMRHFALDAAATVAAQRDTTVISHSPNTSYDTALEARIQKEEEEILMANKRCLDMEGRIKTLHAQIIEKDAMIKVLQQRSRKEPSKTEQLSCMRPAKSLMSISNAGSGLLSHSSTLTGSPIMEEKRDDKSWKGSLGILLGGDYRAEYVPSTPSPVPPSTPLLSAHSKTGSRDCSTQTERGTESNKTAAVAPISVPAPVAAAATAAAITATAATITTTMVAAAPVAVAAAAAPAAAAAPSPATAAATAAAVSPAAAGQIPAAASVASAAAVAPSAAAAAAVQVAPAAPAPVPAPALVPVPAPAAAQASAPAQTQAPTSAPAVAPTPAPTPTPAVAQAEVPASPATGPGPHRLSIPSLTCNPDKTDGPVFHSNTLERKTPIQILGQEPDAEMVEYLI
partner: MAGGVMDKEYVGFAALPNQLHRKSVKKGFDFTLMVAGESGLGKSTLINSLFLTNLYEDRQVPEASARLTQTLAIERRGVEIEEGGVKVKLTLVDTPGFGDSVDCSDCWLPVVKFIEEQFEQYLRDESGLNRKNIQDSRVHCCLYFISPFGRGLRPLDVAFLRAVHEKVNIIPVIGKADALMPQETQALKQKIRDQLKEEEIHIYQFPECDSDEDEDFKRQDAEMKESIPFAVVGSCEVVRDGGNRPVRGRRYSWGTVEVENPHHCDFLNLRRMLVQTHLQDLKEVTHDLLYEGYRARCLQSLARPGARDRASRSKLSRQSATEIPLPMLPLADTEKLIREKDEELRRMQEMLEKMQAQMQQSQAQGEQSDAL
B6: Dendritic cell nuclear protein 1 (Homo sapiens), Q8TF63 (parent)
chain: MHYGAATHIQNSRSHGLETVPGHQRLERGAGGETPEFPGCHSPAPPENFGNELLPLSAPLQGLSEGLYPPGRNKTLPAGVLREGAVQFLHRGLCNSNLSSEASARPSGTQDELHSSRRKTGQTRREGARKHLVCSFRLYPFTVHTVSPGNSHLALYQVFKAVKLCPSETSFFLSRKSLKSSDPWHPPSLSPNSWNRQAGFRAWSSHLISLSLTCSDSQSRRVSSSQQPPLHSLSSHRRAAHVPE

Variants of: B1
Settings: with atosb_human ATOSB

effect of a mutation on the interaction	Variant
disrupting interaction strength	S44F

Variants of: B2
Settings: with tri54_human TRIM54, Q9BYV2

effect of a mutation on the interaction	Variant
disrupting interaction strength	MSETSFNLISEKCDILSILRDHPENRIYRRKIEELSKRFTAIRKTKGDGNCFYRALGYSYLESLLGKSREIFKFKERVLQTPNDLLAAGFEEHKFRNFFNAFYSVVELVEKDGSVSSLLKVFNDQSASDHIVQFLRLLTSAFIRNPADFFRHFIDEEMDIKDFCTHEVEPMATECDHIQITALSQALSIALQVEYVDEMDTALNHHVFPEAATPSVYLLYKTSHYNILYAADKH [R146P]
with no effect	MSETSFNLISEKCDILSILRDHPENRIYRRKIEELSKRFTAIRKTKGDGNCFYRALGYSYLESLLGKSREIFKFKERILQTPNDLLAAGFEEHKFRNFFNAFYSVVELVEKDGSVSSLLKVFNDQSASDHIVQFLRLLTSAFIRNRADFFRHFIDEEMDIKDFCTHEVEPMATECDHIQITALSQALSIALQVEYVDEMDTALNHHVFPEAATPSVYLLYKTSHYNILYAADKH [V78I]

Variants of: B3
Settings: with gdpd5_human GDPD5, Q8WTR4

effect of a mutation on the interaction	Variant
with no effect	MSCPNYCSGNSNSGSLRTSRHIPLTYIDLCPTSVSCGDVLYLPTSSQDHTWVTDNCQETCGEPTSCQPVHCETGNLETSCGSSTAYYVPRPCQGSSFLPASFFSSSCLPVSCRPQRYVSSGCRPLRPLLNSYQPIGDCVPNAYRPQFCLSKSCQPQNLLTSGCQPSSCLAYRPQSLHVVSSSLRPLGPLFSGCQPLTHVFSTCRPSCSGL [S26Y]

Variants of: B4
Settings: with cradd_human CRADD

effect of a mutation on the interaction	Variant
with no effect	H205R

Variants of: B4
Settings: with suv92_human SUV39H2, Q9H5I1
suv92_human SUV39H2, Q9H5I1, sequence (Q9H5I1 whole entry): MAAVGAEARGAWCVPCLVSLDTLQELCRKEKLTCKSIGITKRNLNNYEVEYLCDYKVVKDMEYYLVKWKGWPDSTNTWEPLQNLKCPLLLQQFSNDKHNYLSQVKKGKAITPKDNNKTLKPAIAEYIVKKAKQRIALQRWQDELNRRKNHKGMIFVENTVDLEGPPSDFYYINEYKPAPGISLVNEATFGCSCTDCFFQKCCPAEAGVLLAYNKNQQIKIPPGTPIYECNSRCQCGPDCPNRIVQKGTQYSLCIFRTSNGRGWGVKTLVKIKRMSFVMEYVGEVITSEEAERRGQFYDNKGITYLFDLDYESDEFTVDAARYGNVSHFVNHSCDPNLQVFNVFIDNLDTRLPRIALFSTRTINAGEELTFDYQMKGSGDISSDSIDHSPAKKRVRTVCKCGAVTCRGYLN

effect of a mutation on the interaction	Variant
with no effect	H205R

Variants of: B4
Settings: with rab5c_human RAB5C

effect of a mutation on the interaction	Variant
with no effect	K70R

Variants of: B5
Settings: with sept1_human SEPTIN1, Q8WYJ6

effect of a mutation on the interaction	Variant
with no effect	T899A

Variants of: B6
Settings: with mdfi_human MDFI

effect of a mutation on the interaction	Variant
with no effect	MHYGAATHIQNSRSHGLETVPGHQRLERGAGGETPEFPGCHSPAPPENFGNELLPLSAPLQGLSEGLYPPGRNKTLPAGVLREGAVQFLHRGLCNSNLSSEASARPSGTQDELHSSRRKTGQTRREGARKHLVCSFRLYPFTVHTVSPGNSHLALYQVFKAVKLCPSETSFFLSRKSLKSSDTWHPPSLSPNSWNRQAGFRAWSSHLISLSLTCSDSQSRRVSSSQQPPLHSLSSHRRAAHVPE [P183T]
with no effect	MHYGAATHIQNSRSHGLETVPGHQRLERGAGGETPEFPGCHSPAPPENFGNELLPLSAPLQGLSEGLYPPGRNKTLPAGVLREGAVQFLHRGLCNSNLSSEASARPSGTQDELHSSRRKTGQTRREGARKHLVCCFRLYPFTVHTVSPGNSHLALYQVFKAVKLCPSETSFFLSRKSLKSSDPWHPPSLSPNSWNRQAGFRAWSSHLISLSLTCSDSQSRRVSSSQQPPLHSLSSHRRAAHVPE [S135C]
